According to patent US20100291088A1:
Values belong to the binder of their own block, whether it stands above or below them.

Tests used:
Assay in all cases: cell-based or functional assay
NEM-huIL-18 (human) = NEM-huIL-18 (human) (UniProt Q14116)
(4C/A)-huIL-18 (human) = (4C/A)-huIL-18 (human) (UniProt Q14116)
[1] = molecular target: natural human IL-18 (human) (UniProt Q14116)

- KG-1 Assays (IC50, M) (NEM-huIL-18 (human)): 7e-09 M
B1: 268 (antibody, V domains shown)
VH: ZVQLVESGGGVVQPGRSLRLSCAASGFTFRNYGLHWVRQAPGKGLEWVAVIWYDGSNKYYADSVKGRFTISRDNSKNTLYLQMNSLRAEDTAVYYCARESYYYYGMDVWGQGTTVTVSS
VL: EIVMTQSPATLSVSPGERATLSCRASQSFNSNLVWYQQKPGQAPRLLIYGASTRATGIPARFSGSGSGTEFTLTISSLQSEDFAVYYCQQYNNWTWTFGQGTKVEIKR

- KG-1 neutralization potency in vitro (IC50, nM) ((4C/A)-huIL-18 (human)): 0.2 nM
- WBA neutralization potency in vitro (IC50, nM) [1]: 3 nM
B2: Murine anti-human IL-18 mAb (125-2H) (antibody, from another filing, V domains shown)
VH: EIQLQQSGPELVKPGASVKVSCKASGYSFTDYFIYWVKQSHGKSLEWIGDIDPYNGDTSYNQKFRDKATLTVDQSSTTAFMHLNSLTSEDSAVYFCARGLRFWGQGTLVTVSA
VL: DIQMTQSPSSLSASLGERVSLTCRASQDIGSKLYWLQQEPDGTFKRLIYATSSLDSGVPKRFSGSRSGSDYSLTISSLESEDFVDYYCLQYASSPYTFGGGTKLAIKR
